Results on 42 molecules are retold here after patent publication US20250145729A1 (DENALI THERAPEUTICS, published 2025).

Positions count from the first letter of the chain named.

The labels stand for the following.
B1: LLB2-1 (Fc fusion)
chain: APELLGGPSVFLFPPKPKDTLMISRTPEVTCVVVDVSHEDPEVKFNWYVDGVEVHNAKTKPREEQYNSTYRVVSVLTVLHQDWLNGKEYKCKVSNKALPAPIEKTISKAKGQPREPQVYTLPPSRDELTKNQVSLTCLVKGFYPSDIAVLWNSRFSLENNYKTTPPVLDSDGSFFLYSKLTVDKSRWQQGNIFACNVLHEALHNHYTFKNLSLSPGK
notes: Fc part only
B2: LLB2-10-8-d2 BV (Fc fusion)
chain: B1 chain with S156V, N191E, I192V, L198Y
notes: Fc part only; changes read against LLB2-10-8; BV = bivalent
B3: LLB2-10 (Fc fusion)
chain: B1 chain with S156V
notes: Fc part only
B4: LLB2-10-8-d17 BV (Fc fusion)
chain: B1 chain with R154Q, F155Y, S156E, I192V, L198Y
notes: as for B2
B5: LLB2-10-8-d4 BV (Fc fusion)
chain: B1 chain with S156V, L198Y
notes: as for B2
B6: LLB2-10-8-d8 BV (Fc fusion)
chain: B1 chain with R154H, F155Y, S156E, N191E, I192V, L198Y
notes: as for B2
B7: LLB2-10-8-d12 BV (Fc fusion)
chain: B1 chain with R154H, F155Y, S156E, I192V, L198Y, S212A
notes: Fc part only; BV = bivalent
B8: LLB2-10-8-d18 BV (Fc fusion)
chain: B1 chain with R154Q, F155Y, S156E, I192V, L198Y, S212A
notes: Fc part only; BV = bivalent
B9: LLB2-20 (Fc fusion)
chain: B1 chain with A148V, S156V, N159D, Y161V, N191A, Y206H, S212V
notes: Fc part only
B10: LLB2-10-8 (Fc fusion)
chain: B1 chain with S156V, N191E, L198Y, S212A
notes: Fc part only
B11: LLB2-10-4 (Fc fusion)
chain: B1 chain with A148V, S156V, S212A
notes: Fc part only
B12: LLB2-10-11 (Fc fusion)
chain: B1 chain with S156L, N191E, L198Y, S212A
notes: Fc part only
B13: LLB2-10-8-d13 BV (Fc fusion)
chain: B1 chain with R154Q, F155Y, S156E, N191E, L198Y
notes: as for B2
B14: LLB2-10-8-d10 BV (Fc fusion)
chain: B1 chain with R154H, F155Y, S156E, L198Y
notes: as for B2
B15: LLB2-32 (Fc fusion)
chain: B1 chain with N152L, S153D, R154F, L198F, N210V, S212A
notes: Fc part only
B16: LLB2-10-8-d16 BV (Fc fusion)
chain: B1 chain with R154Q, F155Y, S156E, L198Y
notes: as for B2
B17: LLB2-34 (Fc fusion)
chain: B1 chain with N152T, S153Q, R154F, S156A, L198I, N210V, L211P, S212Q
notes: Fc part only
B18: LLB2-18 (Fc fusion)
chain: B1 chain with A148V, S156A, N159Q, Y161V, N191Q, Y206L, S212V
notes: Fc part only
B19: LLB2-10-7 (Fc fusion)
chain: B1 chain with S156V, N204S, S212A
notes: Fc part only
B20: LLB2-10-8-d15 BV (Fc fusion)
chain: B1 chain with R154Q, F155Y, S156E, N191E, I192V, L198Y, S212A
notes: as for B2
B21: LLB2-10-13 (Fc fusion)
chain: B1 chain with R154Q, S156L, N191E, L198Y, S212Q
notes: Fc part only
B22: LLB2-10-12 (Fc fusion)
chain: B1 chain with S156V, N191E, L198Y, S212Q
notes: Fc part only
B23: LLB2-13 (Fc fusion)
chain: B1 chain with R154Q, S156L
notes: Fc part only
B24: LLB2-11 (Fc fusion)
chain: B1 chain with L198M
notes: Fc part only
B25: LLB2-17 (Fc fusion)
chain: B1 chain with A148S, S156A, N159D, Y161T, N191E, S212A
notes: Fc part only
B26: LLB2-9 (Fc fusion)
chain: B1 chain with S156Q
notes: Fc part only
B27: LLB2-10-10 (Fc fusion)
chain: B1 chain with R154Q, S156V, N191E, L198Y, S212A
notes: Fc part only
B28: LLB2-10-8-d7 BV (Fc fusion)
chain: B1 chain with R154H, F155Y, S156E, N191E, L198Y
notes: as for B2
B29: LLB2-10-8-d14 BV (Fc fusion)
chain: B1 chain with R154Q, F155Y, S156E, N191E, I192V, L198Y
notes: as for B2
B30: LLB2-10-1 (Fc fusion)
chain: B1 chain with S156V, S212A
notes: Fc part only
B31: LLB2-10-8-d6 BV (Fc fusion)
chain: B1 chain with S156V, I192V, L198Y, S212A
notes: Fc part only; BV = bivalent
B32: LLB2-10-5 (Fc fusion)
chain: B1 chain with S156V, N191E, S212A
notes: Fc part only
B33: LLB2-10-6 (Fc fusion)
chain: B1 chain with S156V, L198Y, S212A
notes: Fc part only
B34: LLB2-12 (Fc fusion)
chain: B1 chain with N204S
notes: Fc part only
B35: LLB2-10-8-d3 BV (Fc fusion)
chain: B1 chain with S156V, N191E, I192V, L198Y, S212A
notes: Fc part only; BV = bivalent
B36: LLB2-10-8-d11 BV (Fc fusion)
chain: B1 chain with R154H, F155Y, S156E, I192V, L198Y
notes: as for B2
B37: LLB2-10-9 (Fc fusion)
chain: B1 chain with A148V, S156V, N191E, L198Y, S212A
notes: Fc part only
B38: LLS2.33.3 (Fc fusion)
chain: B1 chain with L150E, N152S, R154Q, F155Y, S156E, I192M, L198W
notes: Fc part only; also called LLB2.33.3
B39: LLB2-8 (Fc fusion)
chain: B1 chain with S156E
notes: Fc part only
B40: LLB2-10-8-d9 BV (Fc fusion)
chain: B1 chain with R154H, F155Y, S156E, N191E, I192V, L198Y, S212A
notes: as for B2
B41: LLB2-10-8-d1 BV (Fc fusion)
chain: B1 chain with S156V, N191E, L198Y
notes: Fc part only; BV = bivalent
B42: LLB2-10-8-d5 BV (Fc fusion)
chain: B1 chain with S156V, I192V, L198Y
notes: as for B2

The target of the first experiment is T1, human CD98hc (human, UniProt P08195 109-529).
T1 construct: also called huCD98hc; CD98 heavy chain
T1 sequence: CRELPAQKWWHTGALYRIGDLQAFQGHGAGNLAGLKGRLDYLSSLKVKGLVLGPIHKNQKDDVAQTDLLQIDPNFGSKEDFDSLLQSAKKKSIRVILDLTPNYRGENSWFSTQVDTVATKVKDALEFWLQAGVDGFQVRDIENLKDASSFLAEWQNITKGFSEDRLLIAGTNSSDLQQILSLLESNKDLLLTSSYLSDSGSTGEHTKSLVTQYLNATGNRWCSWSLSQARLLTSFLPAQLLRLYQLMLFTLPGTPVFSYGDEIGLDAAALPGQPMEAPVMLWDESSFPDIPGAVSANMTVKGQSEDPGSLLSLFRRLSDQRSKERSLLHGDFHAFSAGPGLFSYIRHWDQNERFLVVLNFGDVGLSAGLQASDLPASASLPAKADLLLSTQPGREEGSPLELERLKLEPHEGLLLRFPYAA
The experiment is described as follows: SPR (Biacore). In outline:
(§1)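 Surface plasmon resonance on a Biacore instrument was used to measure the binding affinity (Kd) of engineered Fc polypeptides for CD98hc. Each clone was cloned, expressed and purified as an Fc-Fab fusion bearing anti-BACE1 Fabs. Testing used either a bivalent format or a monovalent knob/hole format in which only the knob chain carried the CD98hc-binding site.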
In general terms: In SPR one partner is held on a chip, and binding of the other changes the refractive index at the surface.
The term Kd denotes the equilibrium constant for the complex coming apart. Higher therefore signals a looser complex. Take B1: binding was characterised by a dissociation constant (Kd) of 0.95 µM. Same read-out and setting: the same measure for B2: 0.49 µM; for B3: 0.68 µM. Molecule B4 yielded a Kd of 0.96 µM. On the same count and under the same terms, the same measure for B5: 0.67 µM.

For the molecule B6, the Kd turned out to be 0.82 µM.

Molecule B7 came in with a Kd of 2.1 µM. The same measure, in the same setting: in the case of B8 it was 0.88 µM; in that of B9, 1.2 µM; in that of B10, 0.17 µM.

On to B11, for which the Kd is 0.63 µM. Same read-out and setting: in the case of B12 it was 0.23 µM; in that of B13, 0.65 µM; in that of B14, 1.4 µM. As for B15, the binding result is reported as “no binding”. The molecule B16 yielded a Kd of 0.65 µM. Regarding B17, the binding result is “no binding”. In the case of B18, the affinity, expressed as Kd, was 1.8 µM.

B19: the Kd turned out to be 1.1 µM. Same read-out and setting: in the case of B20 it was 1 µM. On the same count and under the same terms, in the case of B21 it was 0.26 µM. In turn, B22 had a Kd of 0.21 µM. The same measure, in the same setting: the same measure for B23: 0.85 µM; for B24: 1.3 µM. The same measure, in the same setting: the same measure for B25: 2 µM; for B26: 0.75 µM; for B27: 0.22 µM.

B28 had a Kd of 0.41 µM. Same read-out and setting: the same measure for B29: 0.96 µM; for B30: 0.795 µM. On the same count and under the same terms, the same measure for B31: 1.48 µM.

B32 displayed a dissociation constant Kd of 0.39 µM. The same measure, in the same setting: the same measure for B33: 0.46 µM; for B34: 0.99 µM. The same measure, in the same setting: in the case of B35 it was 0.49 µM; in that of B36, 2.4 µM; in that of B37, 0.25 µM.

Take B38: binding was put at a Kd of 5.4 µM. The same measure, in the same setting: in the case of B39 it was 0.79 µM; in that of B40, 0.84 µM; in that of B41, 0.28 µM. The same measure, in the same setting: the same measure for B42: 1.47 µM.

In the next experiment the target is T2, cyno CD98hc (cynomolgus monkey).
T2 construct: also called cynomolgus CD98hc; cyCD98hc
The experiment is described as follows: SPR (Biacore). The gist of the method:
as §1
As for B1, the Kd came out at 4.3 µM. On the same count and under the same terms, the same measure for B2: 2.3 µM. The same measure, in the same setting: the same measure for B3: 2.7 µM.

In turn, B4 yielded a Kd of 4.1 µM. B5 yielded a Kd of 2.6 µM.

For the molecule B6, the Kd was 3.5 µM. On the same count and under the same terms, the same measure for B7: 5.97 µM; for B8: 3.01 µM. The same measure, in the same setting: the same measure for B9: 5.5 µM; for B10: 0.89 µM. Same read-out and setting: in the case of B11 it was 3 µM. Take B12: the Kd is 1.2 µM. Same read-out and setting: the same measure for B13: 2.6 µM; for B14: 4.2 µM. Still for that read-out and setting: the same measure for B16: 2.5 µM. B18 came in with a Kd of 9.1 µM. Same read-out and setting: the same measure for B19: 6.2 µM. Turning to B20, the Kd is 4.6 µM. B21 registered a Kd of 1.1 µM. Same read-out and setting: the same measure for B22: 1.2 µM; for B23: 3.8 µM; for B24: 8.2 µM. On the same count and under the same terms, in the case of B25 it was 9.2 µM; in that of B26, 3.3 µM. The same measure, in the same setting: in the case of B27 it was 1.1 µM; in that of B28, 2 µM. With B29, binding was put at a Kd of 4.05 µM. Still for that read-out and setting: the same measure for B30: 4.2 µM; for B31: 5.3 µM. On the same count and under the same terms, in the case of B32 it was 2.2 µM; in that of B33, 2.1 µM; in that of B34, 5 µM. On the same count and under the same terms, in the case of B35 it was 2.6 µM; in that of B36, 7.2 µM. Regarding B37, the Kd stood at 1.3 µM. On the same count and under the same terms, the same measure for B39: 3.2 µM; for B40: 4.2 µM; for B41: 1.5 µM.

Molecule B42 gave a Kd of 5.5 µM.
